# Laboratory results as given in patent US20220041752A1 (Bayer, published 2022).
# Tests used:
# [1] = biological target: human tissue factor pathway inhibitor (TFPI) (human) (UniProt P10646); assay: SPR (Biacore) blocking assay: human TFPI immobilised on a CM5 chip, control Fab at 1 ug/ml injected before 5 ug/mL FXa; this bar is the reference set to 100% by definition, so FXa binding is not reduced
# [2] = biological target: human tissue factor pathway inhibitor (TFPI) (human) (UniProt P10646); assay: SPR (Biacore) blocking assay: human TFPI immobilised on a CM5 chip, control Fab at 1 ug/ml injected before 5 ug/mL FVIIa/TF complex; this bar is the reference set to 100% by definition, so FVIIa/TF binding is not reduced
# [3] = biological target: T1, human tissue factor pathway inhibitor (TFPI) (human, UniProt P10646 29-304); assay: assay and TFPI form not stated; reference is the wild type with hc_Lys99
# T1 construct: also called human TFPI
# T1 sequence: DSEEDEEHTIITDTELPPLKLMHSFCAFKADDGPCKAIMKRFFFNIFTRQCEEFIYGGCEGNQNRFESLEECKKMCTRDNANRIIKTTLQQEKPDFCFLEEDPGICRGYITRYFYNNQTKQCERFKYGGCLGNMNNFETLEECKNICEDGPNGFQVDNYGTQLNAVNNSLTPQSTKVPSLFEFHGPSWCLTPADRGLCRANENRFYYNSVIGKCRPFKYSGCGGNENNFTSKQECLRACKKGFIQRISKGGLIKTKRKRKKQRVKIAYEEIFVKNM
# [4] = biological target: T1, human tissue factor pathway inhibitor …; assay: assay and TFPI form not stated; reference is the wild type with hc_Asp62
molecule,measurement,setting,value
Ctrl Fab,FXa binding (% of the signal after control Fab),[1],100%
same,FVIIa/TF binding (% of the signal after control Fab),[2],100%
"Fab B (Fab, V domains shown, also called monoclonal TFPI antibody Fab B) VH: QVELVESGGGLVQPGGSLRLSCAASGFTFRSYGMSWVRQAPGKGLEWVSSIRGSSSSTYYADSVKGRFTISRDNSKNTLYLQMNSLRAEDTAVYYCARLYRYWFDYWGQGTLVTVSS VL: DIELTQPPSVSVAPGQTARISCSGDNLRNYYAHWYQQKPGQAPVVVIYYDNNRPSGIPERFSGSNSGNTATLTISGTQAEDEADYYCQSWDDGVPVFGGGTKLTVLG",fold affinity increase against wild type (hc_Lys99),[3],20 fold
"Fab A (Fab, V domains shown, Expressed in E. coli; also called monoclonal antibody Fab A) VH: QVQLQQSGPGLVKPSQTLSLTCAISGDSVSSNSAAWSWIRQSPGRGLEWLGIIYKRSKWYNRYAVSVKSRITINPDTSKNQFSLQLNSVTPEDTAVYYCARWHSDKHWGFDYWGQGTLVTVSS VL: DIVMTQSPLSLPVTPGEPASISCRSSQSLVFSDGNTYLNWYLQKPGQSPQLLIYKGSNRASGVPDRFSGSGSGTDFTLKISRVEAEDVGVYYCQQYDSYPLTFGQGTKVEIKR",fold affinity increase against wild type (hc_Asp62),[4],120 fold
